# ± gives the uncertainty stated by the source.
# Assay: self-splicing fitness, log relative to wild type (ln ratio); higher = more splicing; Tetrahymena group I intron in knt gene, E. coli kanamycin selection, DiMSum; sequences stand for … in CUCUCU…GGAGGGAAAAGUUAUCAGGCAUGCACCUGGUAGCUAGUCUUUAAACCAAUAGAUUGCAUCGGUUUAAAAGGCAAGACCGUCAAAUUGCGGGAAAGGGGUCAACAGCCGUUCAGUACCAAGUCUCAGGGGAAACUUUGAGAUGGCCUUGCAAAGGGUAUGGUAAUAAGCUGACGGACAUGGUCCUAACCACGCAGCCAAGUCCUAAGUCAACAGAUCUUCUGUUGAUAUGGAUGCAGUUCACAGACUAAAUGUCGGUCGGGGAAGAUGUAUUCUUCUCAUAAGAUAUAGUCGGACCUCUCCUUAAUGGGAGCUAGCGGAUGAAGUGAUGCAACACUGGAGCCGCUGGGAACUAAUUUGUAUGCGAAAGUAUAUUGAUUAGUUUUGGAGUACUCGUGGUCG
# How it was run: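 Pooled colonies went to amplicon sequencing on an Illumina HiSeq 2500 after six replicate transformations. The plates were LB agar with 100 μg/mL carbenicillin, 50 μM IPTG and 0.2% rhamnose, with or without 25 μg/mL kanamycin, incubated overnight at 37°C or 30°C. The E. coli BL21(DE3) library had all eight P1ex-region intron nucleotides randomised, the intron placed in the knt kanamycin-resistance gene on pET-22b(+). DiMSum fitness is the error-weighted combination of replicate fold changes, kanamycin against none, normalised to wild type.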
Sequence,self-splicing fitness (ln) (30 °C),self-splicing fitness (ln) (37 °C)
CUUAAGCAAUAUUACGCCGG,-4.01 ± 0.33,-1.85 ± 0.25
CUUAAGCAAUAUUACGCGUG,-2.99 ± 0.15,-1.26 ± 0.12
CUUAAGCAAUAUUACGCUAU,-1.59 ± 0.32,-1.8 ± 0.33
CUUAAGCAAUAUUACGCUGA,-3.94 ± 0.39,-1.17 ± 0.25
CUUAAGCAAUAUUACGGAAC,,-1.89 ± 0.3
CUUAAGCAAUAUUACGGCAA,-2.7 ± 0.42,-2.57 ± 0.38
CUUAAGCAAUAUUACGGCAG,-0.565 ± 0.099,-0.3 ± 0.12
CUUAAGCAAUAUUACGGGAG,-3.42 ± 0.27,-2.67 ± 0.27
CUUAAGCAAUAUUACGGUGA,-3.72 ± 0.24,-2.17 ± 0.19
CUUAAGCAAUAUUACGGUGC,-3.83 ± 0.17,-2.25 ± 0.2
CUUAAGCAAUAUUACGUACC,-2.7 ± 0.35,-0.17 ± 0.47
CUUAAGCAAUAUUACGUCAC,-3.97 ± 0.29,-2.91 ± 0.3
CUUCAGCAAUAUUACGACAG,-0.695 ± 0.069,-0.281 ± 0.093
CUUCAGCAAUAUUACGACAU,-3.599 ± 0.023,-2.28 ± 0.036
CUUCAGCAAUAUUACGAGAC,-4.24 ± 0.34,-3.01 ± 0.34
CUUCAGCAAUAUUACGAUAU,-3.28 ± 0.22,-1.73 ± 0.27
CUUCAGCAAUAUUACGCAAA,-2.99 ± 0.26,-2.21 ± 0.33
CUUCAGCAAUAUUACGCAGC,-2.04 ± 0.22,-1.5 ± 0.32
CUUCAGCAAUAUUACGCAUG,-1.48 ± 0.061,0.119 ± 0.068
CUUCAGCAAUAUUACGCAUU,-3.11 ± 0.19,-2.28 ± 0.2
CUUCAGCAAUAUUACGCCCC,,-1.14 ± 0.47
CUUCAGCAAUAUUACGCUAA,-3.37 ± 0.26,-2.3 ± 0.3
CUUCAGCAAUAUUACGCUAC,-2.4 ± 0.22,-2.25 ± 0.37
CUUCAGCAAUAUUACGCUCC,-2.61 ± 0.26,
CUUCAGCAAUAUUACGCUGU,-3.69 ± 0.31,-2.47 ± 0.42

Sequence,self-splicing fitness (ln) (30 °C),self-splicing fitness (ln) (37 °C)
CUUCAGCAAUAUUACGGACU,-2.26 ± 0.16,-2.66 ± 0.27
CUUCAGCAAUAUUACGGAGC,-3.04 ± 0.29,-2.65 ± 0.25
CUUCAGCAAUAUUACGGAGU,-3.27 ± 0.15,-3.23 ± 0.28
CUUCAGCAAUAUUACGGAUA,-1.97 ± 0.12,-0.695 ± 0.11
CUUCAGCAAUAUUACGGCAC,-4.13 ± 0.33,-0.568 ± 0.13
CUUCAGCAAUAUUACGGGGG,-3.72 ± 0.21,-2.23 ± 0.26
CUUCAGCAAUAUUACGGGUG,-0.356 ± 0.038,0.33 ± 0.058
CUUCAGCAAUAUUACGGGUU,-4.12 ± 0.24,-2.49 ± 0.23
CUUCAGCAAUAUUACGGUUG,-1.28 ± 0.071,-0.455 ± 0.088
CUUCAGCAAUAUUACGUACA,,-2.14 ± 0.5
CUUCAGCAAUAUUACGUGAG,-0.619 ± 0.031,-0.0413 ± 0.054
CUUCAGCAAUAUUACGUGCA,-3.53 ± 0.25,-3.83 ± 0.3
CUUCAGCAAUAUUACGUUAC,-3.35 ± 0.28,-2.27 ± 0.27
CUUGAGCAAUAUUACGAAUG,-1.23 ± 0.12,-0.596 ± 0.19
CUUGAGCAAUAUUACGAGAG,,-1.44 ± 0.24
CUUGAGCAAUAUUACGAUAG,-2.67 ± 0.18,-0.896 ± 0.2
CUUGAGCAAUAUUACGAUCU,,-1.04 ± 0.31
CUUGAGCAAUAUUACGCAUG,-2.7 ± 0.21,-1.3 ± 0.44
CUUGAGCAAUAUUACGCCGA,,-2.7 ± 0.33
CUUGAGCAAUAUUACGGCUA,,-1.11 ± 0.42
CUUGAGCAAUAUUACGUAAG,-1.68 ± 0.1,-0.582 ± 0.13
CUUGAGCAAUAUUACGUGCA,-3.2 ± 0.29,-1.94 ± 0.25
CUUUAGCAAUAUUACGACCG,-0.732 ± 0.27,0.518 ± 0.26
CUUUAGCAAUAUUACGAUGU,-3.36 ± 0.28,-2.36 ± 0.24
CUUUAGCAAUAUUACGCAUC,,-1.54 ± 0.43

Sequence,self-splicing fitness (ln) (30 °C),self-splicing fitness (ln) (37 °C)
CUUUAGCAAUAUUACGCAUG,-1.2 ± 0.11,-1.96 ± 0.11
CUUUAGCAAUAUUACGCCCG,-0.47 ± 0.17,0.513 ± 0.24
CUUUAGCAAUAUUACGCCGG,-1.74 ± 0.16,-1.22 ± 0.19
CUUUAGCAAUAUUACGCUCG,-1.68 ± 0.15,-0.602 ± 0.18
CUUUAGCAAUAUUACGCUGG,-3.05 ± 0.3,-1.99 ± 0.3
CUUUAGCAAUAUUACGGACC,,-1.83 ± 0.41
CUUUAGCAAUAUUACGGCUU,-3.62 ± 0.32,
CUUUAGCAAUAUUACGGUUG,-0.918 ± 0.083,-0.666 ± 0.099
CUUUAGCAAUAUUACGGUUU,-2.79 ± 0.21,-2.71 ± 0.24
CUUUAGCAAUAUUACGUCUA,,-2.26 ± 0.29
CUUUAGCAAUAUUACGUCUC,-2.64 ± 0.24,-3.21 ± 0.3
CUUUAGCAAUAUUACGUGCA,-2.93 ± 0.23,-2.75 ± 0.25
CUUUAGCAAUAUUACGUGGU,-2.28 ± 0.25,-2.8 ± 0.26
GAAAAGCAAUAUUACGAAUG,-1.89 ± 0.07,-1.19 ± 0.08
GAAAAGCAAUAUUACGACCA,-0.386 ± 0.13,0.235 ± 0.19
GAAAAGCAAUAUUACGAGCA,-0.889 ± 0.063,-0.307 ± 0.076
GAAAAGCAAUAUUACGAUCG,-0.618 ± 0.06,0.218 ± 0.08
GAAAAGCAAUAUUACGAUGA,-0.7 ± 0.1,-0.295 ± 0.11
GAAAAGCAAUAUUACGAUGG,-2.73 ± 0.13,-0.913 ± 0.12
GAAAAGCAAUAUUACGCACC,-0.811 ± 0.28,-0.377 ± 0.31
GAAAAGCAAUAUUACGCAGA,-2.53 ± 0.18,-2.2 ± 0.13
GAAAAGCAAUAUUACGCAGU,-3.38 ± 0.18,-1.69 ± 0.15
GAAAAGCAAUAUUACGCGGG,-3.37 ± 0.2,-2.21 ± 0.18
GAAAAGCAAUAUUACGCUGG,-2.57 ± 0.2,-1.24 ± 0.25
GAAAAGCAAUAUUACGCUGU,-2.75 ± 0.15,-0.534 ± 0.12

Sequence,self-splicing fitness (ln) (30 °C),self-splicing fitness (ln) (37 °C)
GAAAAGCAAUAUUACGGAGC,-2.46 ± 0.16,-0.743 ± 0.12
GAAAAGCAAUAUUACGGCGA,-0.334 ± 0.07,-0.204 ± 0.074
GAAAAGCAAUAUUACGGCGU,-0.208 ± 0.095,0.24 ± 0.11
GAAAAGCAAUAUUACGGUAA,-1.98 ± 0.12,-1.18 ± 0.12
GAAAAGCAAUAUUACGGUGG,-3.78 ± 0.2,-1.66 ± 0.15
GAAAAGCAAUAUUACGUACA,-0.498 ± 0.066,-0.0587 ± 0.082
GAAAAGCAAUAUUACGUAUA,-0.936 ± 0.098,-0.833 ± 0.12
GAAAAGCAAUAUUACGUCGG,-4.39 ± 0.32,-2.89 ± 0.24
GAAAAGCAAUAUUACGUGAA,-1.56 ± 0.065,-1.33 ± 0.085
GAAAAGCAAUAUUACGUGGC,-3.57 ± 0.2,-2.06 ± 0.16
GAAAAGCAAUAUUACGUGGU,-3.58 ± 0.17,-2.79 ± 0.2
GAAAAGCAAUAUUACGUGUU,-2.35 ± 0.083,-1.18 ± 0.088
GAAAAGCAAUAUUACGUUCA,-0.878 ± 0.086,-0.773 ± 0.082
GAAAAGCAAUAUUACGUUGC,-3.83 ± 0.15,-2.67 ± 0.14
GAACAGCAAUAUUACGAACG,-1.21 ± 0.1,-0.566 ± 0.14
GAACAGCAAUAUUACGAGCU,-1.99 ± 0.091,-1.18 ± 0.09
GAACAGCAAUAUUACGCAGA,-2.1 ± 0.14,-1.66 ± 0.12
GAACAGCAAUAUUACGCUAU,-2.43 ± 0.1,-1.21 ± 0.11
GAACAGCAAUAUUACGCUGC,,-1.69 ± 0.26
GAACAGCAAUAUUACGGGAA,-2.38 ± 0.2,0.0433 ± 0.14
GAACAGCAAUAUUACGUAAG,-1.06 ± 0.083,-0.059 ± 0.093
GAACAGCAAUAUUACGUAAU,-0.976 ± 0.065,-0.107 ± 0.09
GAACAGCAAUAUUACGUCGC,-1.61 ± 0.11,-0.68 ± 0.12
GAACAGCAAUAUUACGUGAU,-0.746 ± 0.058,-0.432 ± 0.075

# — the supplement of paper PMC7877785
